This is an account of results in a protein production outcome set (Wang et al. 2014).
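Note: failed if final PepcDB status was selected cloned or expressed and not failed if soluble or beyond.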

This data set can be described thus: label from the status in PepcDB records.
As for “MQNMKNQVRGSGMDARSNPANVSDGLQNSSGHIGTNTRYRLTKLGEQMARLPIDPKIARILLAAKKHDCMAEILVIASALSIQDPRERPLEARDAAAKAHERFTDKQSDFLTYLNIWDSFQRERDKGLSNKQLVQWCRQYFLSHLRMREWRELHHQLAQTAIEMGLTTKEAAFRRPPEVKQLTSSENAGDQDLSAKLKQKQLDKKQHRTQIRATKEAGYEQIHRALLTGLIANVGMKSPDSNDYTGARGSRFHLFPASALFKAKPKWVMAAELVETTRLYARDVAVIQPEWIEQEAPHLVRYHYFEPHWEQKRGEVVASERVTFYGLTVLPRRPVSYGKVAPEEAREIFIRSALVAQEYDLKADFFVHNKKLIKEITELEHKSRKQDVLVDDEALFAFYHERLPDFYMADSVSEGLCPANPQQTTPSPVGKGWGEGKTVAAQTNFSATAANPLPNPLPQEREQSASVSTVSGSLKTMSCEARLNFCEAKTKTESSLHSQRLSENYTPPFSDGLRPANPQQTTPSPVGEGWGEGKTVAAQTNFSATAANPLPQEREQSASALTVSDDPKPKKQPASQKGRLKPLPLADIRTFEAWLKTAERDNPRLLFLSRDDLMQHAAAHITEEQFPKHWQTADGKFKLSYRFEPHHPLDGVTLTLPLTVLNRISPAALEWLVPGMIREKIQLQIKALPKQIRRICVPVPEFITQFLSQNPDRNAPILPQLAQAIAKTAGDIRILEQINQDEWAAFRLPEHCYFNLRIIDDGEQELAMGRDLIQIQQQLGKAATTTFRDNTQEFERDNVTAWDIGILPESIKFARGKQQLTGYLGLQKEKDGRIALRLFDTSAAAGHAHRLGVIELMKLQLKEQVKDLNKGIQGFTQAAMLLKHINADTLRDDLTQAVCDRAFIGEDKLPRNEKAFKEQIKRARSRLPAVKEALSRYLQETAAAYAELNGKLGKHPLTHLLRLRLQTLLAPGFATRTPWAQWPRLPIYLKAMTLRLEKYSSNPARDAAREADIQELEQMWQEKTDGLAKQGQPVSDGLAAFKWMIEELRVSLFAQELKTPYPVSVKRLLKMWEILL”, the protein production entry is on record as “failed”.
With “MNIQDYPDRDMLAIDLANHLAGELEATLFTHDSATLAVAGGTTPGPVFDVLCAADLDWHRVMVLPTDERCVPQDHSRANARLIAERLLVNRAASARYLPLYLPGAEPEDCLAEVEALLTPALPLSVLVLGMGEDMHTASLFAGMPGLAAALDADAPALAVARPETQPENRITLTAPVLNGALSKHLIIYGAAKRKALERAMSMHPEEAPIAAVLDGITVHW” the entry was “failed”; with “MKIGVIQASTRTDLNQLLFEAVKQAAGNQHEIVNFGVFPQETENYSYVEVAIMISLLIETGAIDFMVSGCSSGQGMMMACNSLPGLQAGFIQTPQDAFLFGRINNGNVASLSLGLNFGWAGELNLQYALNELFHGEFGIGYPPEVAERKREEAQLLLTLNDITKKSFLEIIDQLDKALLFKILKRKDLTAYLFDYGSNSLLLERLQFFRN”, “failed”.
For the sequence “MNINVKDIIADSHLAFLNQENETALRLARQAISLAPDNPDAYRCAGNACMSLDRYDEAIEYYRTAVKYDPDNGNRYYDLGFALASAERFSDALKNLAKAEELGCTPENLVQLYNLLGILCFDIGRYDDALVNLNKAEKLIGIDVDILKRKAVIYGIKNDIKNGLMTANQIKLVTPSEYTGYQIAFKLLVQAKRLDEAEKELERARKYASPTMDFYFDYMTLELEKYKTDNDKEHFKTALGMIEKALKTVKPTVKEVVESYINAAEIYLQLEDADRAIECLNAAQNPIWAYNNGFDVVVRNYEPVTLTEYDIEDMIEADRKKIEEQFGDYGFEEMVESIEPDEEGNRDYLTVIEDEVKSDAKEDSEVYKLDESEKVEYSSDNIDQINRLYVGAYTVKKDFEKVIEYSRKLQASENTYSVYLGKYTEANAMKELGLPDFAAKYEEIIKFFRNAMIKDPTDLTAVTFRVQCYIDIGQYDEAEQLCSLLTKEVRNSFMEKIKKAKSGGEQH”, the protein production entry is on record as “failed”.
Regarding “MYKRRVDPELEDLTSRAREALALFISISLRDNTELNLVVPNGPSWLSHVDKKDLYLNDETLKKITDILVAKDVTGNYNIVNVAIAAAPQHSQKRFVIYIKTSIYVEIVVIGNMKSNLTLIADGQDSTIITFNLSSSNSKRTFNTATFASNGDGFIRVDMCFRNTTWPVKGPVVTLRVNGDMSIIYRCRVEEYQDALYPHKNRQCYREYFLMDTVDFICGNAAAVFQFCQIVHMDG”, the protein production result was “not failed”.
To “MSNVRVLATDLAFPEGPVVMPDGSVVLVEIRAQQLTRVWPDGRKEVVAKVPGGPNGAALGPDGKMYICNNGGFGWFPSRGTMMPGAPAPHEYIGGSIQRVDLQSGEVETLFDKCGEHPLKGPNDLVFDKHGGLWFTDLGKRRARDMDVGAAYYIKPGMTEITEQVFGTLPLNGIGLSPDEATMYAAETPTGRLWAFDLSGPGEVKPRDVIYRGEKGKPICGLGGYQMFDSLAVEASGNVCVATLVSGCISVIAPDGTLVEQVPTGDRVTTNIAFGGPDLKTAYITLSGKGELIAMDWSRPGLPLNFLNK” belongs “failed”; to “MRGCNKETGEFLGPSRSQQRRTALEVLVLSEKLAALTPAQLAKLPIPERLLPHITETKRITSHIARKRQLAFLAKQMRREDDTTLEAIREKLNASGIQAQREVATLHRTEQWRKRLLEEGDSALTELLNQYPQADCGKLRQLLRNSKTEQARNKAPQAFRELYQVLHGLIITQ”, “not failed”.
With “MIKHYLFMAVSQVFFSFFLVLFFISSIVLLISIASVTLVIKVSFLDLVQLFLYSLPGTIFFILPITFFAACALGLSRLSYDHELLVFFSLGVSPKKMTKVFAPLSLLVSAILLVFSLILIPTSKSTYYGFLRQKKDKIDINIRAGEFGQKLGDWLVYVDKTKNNSYDNLVLFSNKSLSQESFILAQKGNINNQNGVFELNLYNGHAYFTQGDKMRKVDFEELHLRNKLKSFNSNDAAYLQGTDYLGYWKKAFGKNANKNQKRRFSQAILVSLFPLASVFLIPLFGIANPRFKTNWSYFYVLGAVGVYFLMVHVISTDLFLMTFFFPFIWAFASYLLFRKFILKRY” the entry was “failed”.
To “MKISELGYDRAFLQLFDGNDFQLYDHQRMAIEQIRKGRNVVVSVPTAAGKTLIAYSAIYETFQRNLKSIYIVPLRSLAMEKFSELSRLRDLGLKVKMSIGDYDDSPDFIKRYDAVILTSEKADSLLHHDPYILNDVGLLVLDEIHTIGDESRGPTLETVASIARYVNPDVRILALSATVSNAMELASWLDASLIKSDFRPVPLKTGILYRDQLYLDGKRRSGVSINQIIRETVEDNGQVLMFVSSRKKAEDTARDLAQIFGSDANIKISSDETNVYDDMLNEILPRGVAFHHAGLSNDQRAFIEREFRARRIKVIVATPTLAAGVNLPARLVIVRDITRWGSDGISYLTNMEIKQMIGRAGRPGYDQYGIGLIYVSSQSSYEAAKDYLSTDPEPVVSYLGNEAKVRFNTLAAISMGLARSPSDIMKFYETTLFFSQNGKDLLEEKISASLKFLEKNGFIKQSPDLRTTQLGKVTSDLYIDPESALRLVDFFDGPADVDHAIYYISLCREIVPFNIKDDYSAMEFLDDIGLIDGDIDAAKTAIVLRDWISEASYKYLYDKYGIAPGDMQARISMADWLSYSLAKLSSIYKPEVRRMLEILNLRIKEGIREDILQLVLIPGVGRVRARRLYDAGLRSIEDVASASPDRIKAIYGFSDTLANAIIRRARTIASKEVR” belongs “failed”; to “MAILVDVRAAREIQDGEAGCRWERPLALGQGAFYAATGAWPLVHMPSFVAVTGPKLEPWLVRTVGVLIGAIGGTLLSAGARRRITPEVRWLALASAAGIAAVELWYAGRRRRIAPVYLLDGAGELALAAAWAALGAGRRLRGGVGTVAGGRGRHGREEDAR”, “failed”.
As to “MNLVQDKVTIITGGTRGIGFAAAKIFIDNGAKVSIFGETQEEVDTALAQLKELYPEEEVLGFAPDLTSRDAVMAAVGQVAQKYGRLDVMINNAGITSNNVFSRVSEEEFKHIMDINVTGVFNGAWCAYQCMKDAKKGVIINTASVTGIFGSLSGVGYPASKASVIGLTHGLGREIIRKNIRVVGVAPGVVNTDMTNGNPPEIMEGYLKALPMKRMLEPEEIANVYLFLASDLASGITATTVSVDGAYRP”, the protein production entry is listed as “not failed”.
As to “MTDYTKLQQVRQWTQDNHVDVTYISNFHTISYLTGFESNPYERTLALFVFADAEPFLFAPALEVEAIKEMGWPYKVFGYLDHENPYALIADHIHAQLTDPKVWALETGNLTLDRFTALKQQFPAAHFDKDLSPYIQQLRLVKTADELEKLNIAGKWADFAFEQGFAAVKAGRTEQQIAAELQYALMKKGIMEMSFDTLVQAGEHAANPHGATNETQVKPNELVLFDLGVMYEGYASDASRTIAYGQPSAKQKEIFDVCLEANLTAQAAIKPGMAAEDVDKIARDIITKAGYGEYFIHRLGHGIGQTDHEFPSIMAGNHMPLVEGMCFSVEPGIYIPGVAGVRIEDCGVVTKEGFKPFTHTPKELKVLDL”, the protein production result was “failed”.
Take “DYFTTTNSIPPVITTNHRRKHSIEKFYRDQLGSIIWNEEDVGHQQVPEINKHGYRAAVKIIVIIDNMERKAAIQSRQSYDEALRYGAVLIFLPGIYEIDT”: the protein production result is “failed”.
With “MNLINMSNFTSGRRLLRFAVVADSHLNPVNAGNTSPWQTNHLANPRNEVVVAAINRIAPAFTVHVGDVVHPLPHSTDYDGAADFATTLYRGLQAPFYIAPGNHDIGDKHLPGNPAACISADSCGKYEQHFGAQWQAFTEGNVCFIIINACLLGSGLPQEDAQWQFLQSRLAEEKAAGRRLFLFTHYPPFVTAPDEENHYDNIDHGPRRRLLELTASAGVEALFAGHVHTFFLNRHAGMWSYALPSSTNFRQDYAELFRVEPGEELGRNDLGKFGFFVVDIHEHGHIARFVRTYGSTDPAQGEEIALQVEGDVREHAAGTVAADFRHDWARVEALPYNPPLDAFVRKRVRNDYYILNLWDAGMRGVRLPIHDIADEQAFERVRLLGELGHRCLVFGTAVPDAHLLERLASLGPALEGYEWIGPDSAIAAHAAGQFARRGIRLFVAPVMQPPSSHSQGQYDHNMTSGIALGELDHLARFRPQRADASAPGVVVRIAGDEPVLESVRQAVEQAASHGVAIALHINLANRKSALVNDDDQAQAARVAEAAIAKAAYPDVPMTLDTFMDIDRGYFARHGLVDRRNNPRPAATVLRRLSERLRGHAVRIGAITREPAQSTVRIALGDQTLDVRIGRDISF”, the protein production result is listed as “failed”.
Turning to “MKERKKKYVALWQVMQRECRRLVSRPLYLFCMVIAPLFCYLFFTTLMDSGLPQNLPAGVVDMDDSSTSRNIVRNLDAFSQTGVVAHYSNVTDARIAVQEGKIYGFFYIPKGLSAEAQSQRQPKISFYTNYSYLIAGSLLFRDMKMMGELTAGSAARSVLYAKGATEDQAMGFLQPIVIDTHPLNNPWLNYSVYLCNTLIPGVLMLLIFMVTVYSIGVEIKDRTAREWLRMSNNSIYIALAGKLLPHTVVFFIMGIFYNVYLYGFLHFPCNSGIFPMIFATLCLVLASQCCGIVMIGTLPTLRLGLSFASLWGVISFSISGFSFPVMAMNPVLQALSNLFPLRHYFLIYVDQALNGYSMAYSWSNYMALLIFMMLPFFVVHRLKEALVYYKYIP”, the protein production result is recorded as “failed”.
